Measurements: ChEMBL document CHEMBL6182944, “Substrate Specificity of the Organic Cation Transporters MATE1 and MATE2K and Functional Overlap with OCT1 and OCT2” (J Med Chem, 2025)

Columns and labels:
[1] = target: T1, Multidrug and toxin extrusion protein 2 (Homo sapiens, UniProt Q86VL8); assay: Substrate activity at MATE2-K (unknown origin) expressed in HEK293 cells assessed as intrinsic clearance by measuring ratio of Vmax (maximum transport velocity) over Km measured per mg of protein by HPLC-MS/MS analysis; format: cell-based
T1 sequence (Q86VL8 whole entry): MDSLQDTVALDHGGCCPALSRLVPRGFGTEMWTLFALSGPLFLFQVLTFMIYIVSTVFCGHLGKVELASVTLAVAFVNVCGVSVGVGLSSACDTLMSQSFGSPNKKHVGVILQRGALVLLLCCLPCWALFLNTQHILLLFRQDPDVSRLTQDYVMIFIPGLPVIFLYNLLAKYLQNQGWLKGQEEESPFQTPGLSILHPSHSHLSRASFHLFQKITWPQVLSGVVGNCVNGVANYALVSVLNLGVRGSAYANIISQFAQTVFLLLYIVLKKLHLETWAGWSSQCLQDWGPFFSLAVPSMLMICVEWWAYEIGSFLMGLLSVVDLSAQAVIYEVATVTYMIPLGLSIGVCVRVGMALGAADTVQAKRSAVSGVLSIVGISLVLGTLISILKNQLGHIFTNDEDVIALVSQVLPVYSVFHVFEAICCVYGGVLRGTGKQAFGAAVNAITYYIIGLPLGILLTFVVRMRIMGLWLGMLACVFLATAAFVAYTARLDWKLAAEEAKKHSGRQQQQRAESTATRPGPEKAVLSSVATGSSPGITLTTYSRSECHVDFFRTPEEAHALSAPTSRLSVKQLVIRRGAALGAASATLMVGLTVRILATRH

[2] = target: T2, Multidrug and toxin extrusion protein 1 (Homo sapiens, UniProt Q96FL8); assay: Substrate activity at MATE1 (unknown origin) expressed in HEK293 cells assessed as intrinsic clearance by measuring ratio of Vmax (maximum transport velocity) over Km measured per mg of protein by HPLC-MS/MS analysis; format: cell-based
T2 sequence (Q96FL8 whole entry): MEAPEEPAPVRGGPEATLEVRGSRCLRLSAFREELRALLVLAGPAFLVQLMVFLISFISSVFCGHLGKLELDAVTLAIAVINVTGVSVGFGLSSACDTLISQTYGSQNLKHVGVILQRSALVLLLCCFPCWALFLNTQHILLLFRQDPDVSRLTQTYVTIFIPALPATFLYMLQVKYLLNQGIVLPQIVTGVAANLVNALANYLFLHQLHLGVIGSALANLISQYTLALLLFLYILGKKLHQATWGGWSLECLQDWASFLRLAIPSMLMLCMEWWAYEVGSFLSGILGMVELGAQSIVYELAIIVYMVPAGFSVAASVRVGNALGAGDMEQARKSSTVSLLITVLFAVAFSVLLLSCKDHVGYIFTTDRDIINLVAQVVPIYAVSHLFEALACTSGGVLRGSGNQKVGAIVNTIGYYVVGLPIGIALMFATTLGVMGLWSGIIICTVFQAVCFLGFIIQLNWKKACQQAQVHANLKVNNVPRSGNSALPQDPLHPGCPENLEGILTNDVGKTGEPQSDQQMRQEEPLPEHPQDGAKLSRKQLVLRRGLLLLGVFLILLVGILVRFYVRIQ

[3] = target: T1, Multidrug and toxin extrusion protein 2; assay: Substrate activity at MATE2-K (unknown origin) expressed in HEK293 cells assessed as Vmax (maximum transport velocity) by HPLC-MS/MS analysis; format: cell-based
[4] = target: T2, Multidrug and toxin extrusion protein 1; assay: Substrate activity at MATE1 (unknown origin) expressed in HEK293 cells assessed as Vmax (maximum transport velocity) by HPLC-MS/MS analysis; format: cell-based
MATE2-K = target: T3, MATE2-K (Homo sapiens, UniProt Q86VL8); assay: (§1) Substrate activity at MATE2-K (unknown origin) expressed in HEK293 cells assessed as substrate concentration to achieve half of Vmax (maximum transport velocity) measured per mg of protein by HPLC-MS/MS analysis; format: cell-based; conditions: HEK293 cells expressing MATE2-K
T3 sequence (Q86VL8 whole entry): T1 sequence (Q86VL8 whole entry)

[5] = substrate: c1c2c(cc3c1OCO3)-c1cc3ccc4c(c3c[n+]1CC2)OCO4; assay: as §1; format: cell-based, Homo sapiens
[6] = substrate: CN(C)C(=O)Oc1cccc([N+](C)(C)C)c1; assay: as §1; format: cell-based, Homo sapiens
[7] = substrate: C[C@H]1N=C(N(C)C)N=C(N)N1; assay: as §1; format: cell-based, Homo sapiens
[8] = substrate: C[N+]1(CC2CC2)CC[C@]23c4c5ccc(O)c4O[C@H]2C(=O)CC[C@@]3(O)[C@H]1C5; assay: as §1; format: cell-based, Homo sapiens
[9] = substrate: COCCn1c2c([n+](Cc3cnccn3)c1C)C(=O)c1ccccc1C2=O; assay: as §1; format: cell-based, Homo sapiens
[10] = substrate: CC(CCc1ccc(O)cc1)NCCc1ccc(O)c(O)c1; assay: as §1; format: cell-based, Homo sapiens
[11] = substrate: CCN1CCCC1CNC(=O)c1cc(S(=O)(=O)CC)c(N)cc1OC; assay: as §1; format: cell-based, Homo sapiens
not read [12] = substrate: NCCc1ccc(O)c(O)c1; assay: not read
not read [13] = substrate: Cc1ncc(C[n+]2csc(CCO)c2C)c(N)n1; assay: not read
not read [14] = substrate: Cc1ncc(CO)c(CO)c1O; assay: not read
not read [15] = substrate: CN(C)CCc1c[nH]c2ccc(C[C@H]3COC(=O)N3)cc12; assay: not read
not read [16] = substrate: CNC[C@H](O)c1ccc(O)c(O)c1; assay: not read
not read [17] = substrate: Nc1nc(=O)n([C@@H]2CS[C@H](CO)O2)cc1F; assay: not read
not read [18] = substrate: CC(C)NC[C@@H](O)COc1ccc(CC(N)=O)cc1; assay: not read

CN(C)CCc1c[nH]c2ccc(C[C@@H]3COC(=O)N3)cc12
CL [1]: 54.2 µL/min | CL [2]: 94.5 µL/min | Vmax [3]: 992 pmol/min | Vmax [4]: 2624 pmol/min | Km (MATE2-K): 18.3 µM

B1: Multidrug and toxin extrusion protein 2 (Homo sapiens) (protein)
chain: T1 sequence (Q86VL8 whole entry)
Km [5]: 1.88 µM | Vmax [5]: 0.000246 µmol/min | Km [6]: 385 µM | Vmax [6]: 0.00314 µmol/min | Km [7]: 81.6 µM | Vmax [7]: 0.00281 µmol/min | Km [8]: 86.8 µM | Vmax [8]: 4.16e-05 µmol/min | Km [9]: 8.54 µM | Vmax [9]: 7.85e-05 µmol/min | Km [10]: 86.4 µM | Vmax [10]: 0.000493 µmol/min | Km [11]: 39.9 µM | Vmax [11]: 0.00071 µmol/min | Km (not read [12]): 961 µM | Vmax (not read [12]): 0.00122 µmol/min | Vmax (not read [13]): 0.000109 µmol/min | Km (not read [14]): 495 µM | Vmax (not read [14]): 0.000593 µmol/min | Km (not read [15]): 94.5 µM | Vmax (not read [15]): 0.00166 µmol/min | Km (not read [16]): 1510 µM | Vmax (not read [16]): 0.00297 µmol/min | Km (not read [17]): 873 µM | Vmax (not read [17]): 0.00263 µmol/min | Km (not read [18]): 181 µM | Vmax (not read [18]): 0.00296 µmol/min
